In patent publication US20140088174A1:

Assays:
[1] = biological target: ACVR1B (activin receptor type-1B), endogenous in mouse cells (mouse) (UniProt Q61271); test: cell-based or functional assay
[2] = biological target: TGFBR1 (transforming growth factor, beta receptor I), endogenous in mouse cells (mouse) (UniProt Q64729); test: cell-based or functional assay
UniProt Q64729, sequence (Q64729 30-503): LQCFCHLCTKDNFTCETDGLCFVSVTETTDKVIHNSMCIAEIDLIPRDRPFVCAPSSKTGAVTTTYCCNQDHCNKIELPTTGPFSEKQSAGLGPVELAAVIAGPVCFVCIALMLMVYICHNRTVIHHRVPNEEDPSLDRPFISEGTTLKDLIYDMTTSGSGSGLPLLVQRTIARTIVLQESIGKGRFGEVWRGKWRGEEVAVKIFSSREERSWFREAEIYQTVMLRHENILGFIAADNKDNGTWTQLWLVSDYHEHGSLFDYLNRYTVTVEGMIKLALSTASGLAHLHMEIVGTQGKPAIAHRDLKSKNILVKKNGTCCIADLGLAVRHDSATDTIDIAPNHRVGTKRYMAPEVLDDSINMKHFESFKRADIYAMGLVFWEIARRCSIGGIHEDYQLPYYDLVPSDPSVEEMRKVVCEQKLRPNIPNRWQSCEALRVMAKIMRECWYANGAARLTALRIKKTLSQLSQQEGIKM

UniProt Q61271, sequence (Q61271 24-505): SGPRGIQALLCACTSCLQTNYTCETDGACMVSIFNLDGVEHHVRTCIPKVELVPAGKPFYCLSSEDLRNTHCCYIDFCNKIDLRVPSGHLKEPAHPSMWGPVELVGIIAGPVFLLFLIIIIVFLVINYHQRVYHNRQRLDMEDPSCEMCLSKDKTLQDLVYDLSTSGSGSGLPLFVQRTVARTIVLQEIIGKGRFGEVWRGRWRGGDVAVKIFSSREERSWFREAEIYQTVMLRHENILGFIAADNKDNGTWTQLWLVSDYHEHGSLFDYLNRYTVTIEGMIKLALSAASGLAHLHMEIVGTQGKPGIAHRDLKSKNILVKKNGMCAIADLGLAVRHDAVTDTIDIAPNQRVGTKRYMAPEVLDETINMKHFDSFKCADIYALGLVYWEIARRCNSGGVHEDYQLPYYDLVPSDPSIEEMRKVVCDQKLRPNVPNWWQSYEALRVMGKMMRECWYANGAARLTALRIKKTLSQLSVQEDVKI

| myostatin-induced CAGA luciferase in C2C12 cells upon siRNA knockdown of ACVR1B [1] [folds] | myostatin-induced luciferase in C2C12 upon A4E6 AON transfection (fold decrease) [1] | myostatin-induced CAGA luciferase in C3H10 T1/2 cells upon siRNA knockdown of TGFBR1 [2] [folds] | myostatin-induced luciferase in C3H10 T1/2 cells upon TGFBR1 knockdown with A5E2 or A5E6 AON [2] [%] | TGF-beta-mediated CAGA luciferase activity in C2C12 and C3H10 T1/2 cells upon siRNA knockdown of TGFBR1 [2] [folds] | Substance |
| --- | --- | --- | --- | --- | --- |
| 5 | 3 | 2.5 | 50 | – | myostatin (from UniProt O14793 267-375) (ligand) |
| – | – | – | – | 3 | TGF-beta (ligand) |
